According to the supplement of paper PMC10065799, “High-throughput profiling of sequence recognition by tyrosine kinases and SH2 domains using bacterial peptide display” (eLife, 2023):

Experiments:
AncSZ = experiment: phosphorylation enrichment, bacterial display (enrichment ratio); higher = better substrate or ligand; peptides without Tyr show the background
EPHB1 = EPHB1 (UniProt P54762); experiment: as above
EPHB2 = EPHB2 (UniProt P29323); experiment: as above
FGFR1 = FGFR1 (UniProt P11362); experiment: as above
FGFR3 = FGFR3 (UniProt P22607); experiment: as above
Fer (mouse) = experiment: as above
Fes = Fes (UniProt P07332); experiment: as above
Fyn = Fyn (UniProt P06241); experiment: as above
Hck = Hck (UniProt P08631); experiment: as above
Sequence of Hck (P08631 whole entry, looked up): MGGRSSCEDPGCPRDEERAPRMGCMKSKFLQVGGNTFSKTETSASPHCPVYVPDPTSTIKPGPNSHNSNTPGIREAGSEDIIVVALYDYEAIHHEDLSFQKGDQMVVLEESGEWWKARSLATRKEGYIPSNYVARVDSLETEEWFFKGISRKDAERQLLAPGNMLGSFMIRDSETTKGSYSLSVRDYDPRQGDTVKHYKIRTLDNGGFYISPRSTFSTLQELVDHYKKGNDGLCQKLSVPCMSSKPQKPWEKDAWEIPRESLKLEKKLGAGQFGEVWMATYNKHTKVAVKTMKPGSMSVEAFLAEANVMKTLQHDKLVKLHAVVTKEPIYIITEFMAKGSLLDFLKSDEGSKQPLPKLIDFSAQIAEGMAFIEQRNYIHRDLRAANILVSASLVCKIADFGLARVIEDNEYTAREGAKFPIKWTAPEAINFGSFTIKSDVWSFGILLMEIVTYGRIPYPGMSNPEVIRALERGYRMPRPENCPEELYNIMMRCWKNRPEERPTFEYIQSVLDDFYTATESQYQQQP

Jak2 = Jak2 (UniProt O60674); experiment: as above
Sequence of Jak2 (O60674 whole entry, looked up): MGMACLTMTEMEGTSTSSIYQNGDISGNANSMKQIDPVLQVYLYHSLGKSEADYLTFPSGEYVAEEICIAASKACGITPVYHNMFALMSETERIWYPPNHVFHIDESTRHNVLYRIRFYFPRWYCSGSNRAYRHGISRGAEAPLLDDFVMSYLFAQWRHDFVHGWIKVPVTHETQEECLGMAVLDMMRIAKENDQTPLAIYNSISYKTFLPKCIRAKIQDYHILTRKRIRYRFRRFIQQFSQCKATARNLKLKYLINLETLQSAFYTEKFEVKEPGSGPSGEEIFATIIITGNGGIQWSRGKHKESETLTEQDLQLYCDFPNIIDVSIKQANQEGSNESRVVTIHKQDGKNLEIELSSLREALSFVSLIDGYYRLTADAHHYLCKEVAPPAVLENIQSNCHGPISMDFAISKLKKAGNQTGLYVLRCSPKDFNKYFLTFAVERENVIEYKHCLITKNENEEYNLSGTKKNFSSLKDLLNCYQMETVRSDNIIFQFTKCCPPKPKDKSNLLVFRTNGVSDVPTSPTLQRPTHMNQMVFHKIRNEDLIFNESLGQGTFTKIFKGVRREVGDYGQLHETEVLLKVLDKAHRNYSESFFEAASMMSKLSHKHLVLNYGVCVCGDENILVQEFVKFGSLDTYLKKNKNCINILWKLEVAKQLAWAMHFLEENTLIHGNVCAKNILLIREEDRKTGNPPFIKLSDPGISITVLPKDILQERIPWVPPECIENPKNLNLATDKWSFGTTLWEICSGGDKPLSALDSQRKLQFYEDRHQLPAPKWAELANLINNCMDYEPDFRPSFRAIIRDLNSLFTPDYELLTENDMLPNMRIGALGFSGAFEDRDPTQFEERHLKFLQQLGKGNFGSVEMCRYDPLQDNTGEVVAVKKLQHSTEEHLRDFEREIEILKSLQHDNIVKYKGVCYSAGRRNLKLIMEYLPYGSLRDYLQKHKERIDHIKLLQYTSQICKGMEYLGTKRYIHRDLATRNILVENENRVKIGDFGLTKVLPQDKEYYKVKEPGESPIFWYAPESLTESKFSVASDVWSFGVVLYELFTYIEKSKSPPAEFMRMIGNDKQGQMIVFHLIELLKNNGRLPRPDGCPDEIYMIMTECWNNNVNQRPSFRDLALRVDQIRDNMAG

MERTK = MERTK (UniProt Q12866); experiment: as above
Sequence of MERTK (Q12866 whole entry, looked up): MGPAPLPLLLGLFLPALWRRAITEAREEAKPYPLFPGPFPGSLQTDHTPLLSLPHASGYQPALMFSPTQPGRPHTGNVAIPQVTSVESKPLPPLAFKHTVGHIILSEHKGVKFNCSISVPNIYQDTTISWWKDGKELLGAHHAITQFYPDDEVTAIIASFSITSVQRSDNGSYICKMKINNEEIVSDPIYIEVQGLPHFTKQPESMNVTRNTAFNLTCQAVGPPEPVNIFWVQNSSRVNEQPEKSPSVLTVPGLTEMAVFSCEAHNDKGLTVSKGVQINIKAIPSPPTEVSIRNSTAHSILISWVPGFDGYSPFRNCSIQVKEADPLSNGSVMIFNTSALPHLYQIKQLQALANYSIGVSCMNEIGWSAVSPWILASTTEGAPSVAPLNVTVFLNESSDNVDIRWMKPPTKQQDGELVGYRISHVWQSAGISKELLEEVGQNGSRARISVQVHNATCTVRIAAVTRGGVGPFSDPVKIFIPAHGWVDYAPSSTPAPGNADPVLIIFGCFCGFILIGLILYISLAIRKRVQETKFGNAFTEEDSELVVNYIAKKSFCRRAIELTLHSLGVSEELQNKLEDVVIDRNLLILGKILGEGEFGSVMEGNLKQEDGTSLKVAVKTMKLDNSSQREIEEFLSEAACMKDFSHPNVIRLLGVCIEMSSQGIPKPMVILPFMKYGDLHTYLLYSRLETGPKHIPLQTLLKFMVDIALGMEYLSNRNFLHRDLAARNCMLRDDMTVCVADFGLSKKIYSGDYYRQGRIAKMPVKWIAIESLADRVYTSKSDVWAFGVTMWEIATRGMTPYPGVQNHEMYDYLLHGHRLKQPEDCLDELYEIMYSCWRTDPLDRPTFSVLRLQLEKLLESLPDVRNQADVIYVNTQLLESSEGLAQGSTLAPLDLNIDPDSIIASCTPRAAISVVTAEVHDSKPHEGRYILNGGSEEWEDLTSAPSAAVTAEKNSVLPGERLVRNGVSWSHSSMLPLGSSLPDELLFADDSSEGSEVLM

c-Abl (mouse) = experiment: as above
c-Src = experiment: as above
Grb2 SH2 = Grb2 SH2 (UniProt P62993); experiment: SH2 binding enrichment of the phosphorylated peptide, bacterial display (enrichment ratio); higher = better substrate or ligand; peptides without Tyr show the background
SHP2-C SH2 = experiment: as above
c-Src SH2 = experiment: as above
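Throughout, for SH2 binding enrichment of the phosphorylated peptide, bacterial display: peptide library displayed on the E. coli surface as eCPX fusions, selected cells deep-sequenced, score is each peptide's frequency after selection divided by its frequency in the input.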
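Throughout, for phosphorylation enrichment, bacterial display: 11-residue human phosphosite peptides and single-mutation variants displayed on the E. coli surface, counted by deep sequencing, each peptide's frequency after selection divided by its frequency in the unselected input library; frequency after pTyr selection over input frequency; kinase dosed for 20-30% of maximal phosphorylation in three min.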

Sequence of EPHB2 (P29323 whole entry, looked up): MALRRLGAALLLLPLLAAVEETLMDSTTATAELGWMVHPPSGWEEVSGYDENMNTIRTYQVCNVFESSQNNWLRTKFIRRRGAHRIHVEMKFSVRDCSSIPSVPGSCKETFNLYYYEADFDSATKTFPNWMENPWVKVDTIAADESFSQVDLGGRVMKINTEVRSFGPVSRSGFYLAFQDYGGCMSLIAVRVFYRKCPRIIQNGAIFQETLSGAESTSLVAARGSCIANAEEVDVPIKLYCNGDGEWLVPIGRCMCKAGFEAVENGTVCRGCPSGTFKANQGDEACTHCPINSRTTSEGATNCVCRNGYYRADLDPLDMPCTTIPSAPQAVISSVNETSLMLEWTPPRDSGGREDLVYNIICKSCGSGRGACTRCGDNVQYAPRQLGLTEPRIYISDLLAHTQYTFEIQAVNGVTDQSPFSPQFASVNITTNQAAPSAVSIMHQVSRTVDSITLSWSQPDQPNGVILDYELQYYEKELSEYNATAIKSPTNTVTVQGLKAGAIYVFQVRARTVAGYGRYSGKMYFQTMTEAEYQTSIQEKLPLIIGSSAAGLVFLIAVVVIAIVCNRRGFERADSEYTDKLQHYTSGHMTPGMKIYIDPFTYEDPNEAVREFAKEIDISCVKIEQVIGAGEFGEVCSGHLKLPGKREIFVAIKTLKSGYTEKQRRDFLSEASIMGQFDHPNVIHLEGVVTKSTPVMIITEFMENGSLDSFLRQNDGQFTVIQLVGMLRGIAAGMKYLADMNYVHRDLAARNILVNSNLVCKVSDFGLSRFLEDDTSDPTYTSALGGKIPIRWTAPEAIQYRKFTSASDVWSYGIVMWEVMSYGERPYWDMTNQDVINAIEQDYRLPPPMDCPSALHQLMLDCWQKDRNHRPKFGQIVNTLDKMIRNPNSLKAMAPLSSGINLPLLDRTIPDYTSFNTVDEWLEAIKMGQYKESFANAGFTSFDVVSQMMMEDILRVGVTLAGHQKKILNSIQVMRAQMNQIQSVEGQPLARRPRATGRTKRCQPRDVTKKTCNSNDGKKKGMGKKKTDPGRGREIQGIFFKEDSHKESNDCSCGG
Sequence of EPHB1 (P54762 whole entry, looked up): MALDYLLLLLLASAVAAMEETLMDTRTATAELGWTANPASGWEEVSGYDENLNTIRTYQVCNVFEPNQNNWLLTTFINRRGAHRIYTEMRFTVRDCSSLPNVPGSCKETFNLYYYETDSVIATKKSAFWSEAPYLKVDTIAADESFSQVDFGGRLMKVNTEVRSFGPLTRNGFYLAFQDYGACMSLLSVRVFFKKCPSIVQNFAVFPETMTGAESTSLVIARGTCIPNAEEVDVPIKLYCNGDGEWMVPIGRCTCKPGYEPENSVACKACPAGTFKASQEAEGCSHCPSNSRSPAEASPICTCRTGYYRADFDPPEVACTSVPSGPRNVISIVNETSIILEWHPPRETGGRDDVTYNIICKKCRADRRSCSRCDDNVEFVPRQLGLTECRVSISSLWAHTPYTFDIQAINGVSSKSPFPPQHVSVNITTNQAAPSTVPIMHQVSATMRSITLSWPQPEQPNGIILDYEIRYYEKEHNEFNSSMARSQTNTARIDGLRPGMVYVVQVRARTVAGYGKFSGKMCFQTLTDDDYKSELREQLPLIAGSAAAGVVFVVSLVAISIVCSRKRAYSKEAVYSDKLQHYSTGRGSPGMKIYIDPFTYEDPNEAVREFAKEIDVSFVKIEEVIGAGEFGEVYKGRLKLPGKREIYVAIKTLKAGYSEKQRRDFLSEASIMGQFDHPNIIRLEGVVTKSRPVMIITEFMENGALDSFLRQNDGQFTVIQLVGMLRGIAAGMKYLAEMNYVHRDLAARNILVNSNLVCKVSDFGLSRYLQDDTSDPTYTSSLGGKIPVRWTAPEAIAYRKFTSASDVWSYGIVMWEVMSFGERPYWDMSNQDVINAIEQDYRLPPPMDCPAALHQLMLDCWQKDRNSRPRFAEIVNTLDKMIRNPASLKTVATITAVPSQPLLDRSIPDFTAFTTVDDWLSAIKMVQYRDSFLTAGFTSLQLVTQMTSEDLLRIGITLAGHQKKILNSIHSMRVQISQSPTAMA

Sequence	SH2 binding enrichment (Grb2 SH2)	SH2 binding enrichment (SHP2-C SH2)	SH2 binding enrichment (c-Src SH2)	phosphorylation enrichment (AncSZ)	phosphorylation enrichment (EPHB1)	phosphorylation enrichment (EPHB2)	phosphorylation enrichment (FGFR1)	phosphorylation enrichment (FGFR3)	phosphorylation enrichment (Fer (mouse))	phosphorylation enrichment (Fes)	phosphorylation enrichment (Fyn)	phosphorylation enrichment (Hck)	phosphorylation enrichment (Jak2)	phosphorylation enrichment (MERTK)	phosphorylation enrichment (c-Abl (mouse))	phosphorylation enrichment (c-Src)
QPSALYEDRFL [ASS1_Y83_S79P_YF]	0.783	0.684	0.633	1.4	3.04	2.01	0.816	1.12	10.6	1.4	1.77	6.97	0.968	1.11	0.881	1.41
IDPFTYTPFGS [CYP3A4_Y432_I431T_YF]	0.746	0.863	0.597	0.724	0.431	0.705	0.486	0.523	0.587	0.851	0.91	1.18	0.755	0.561	0.581	2.88
ARAHKYHGGGG [HBB_Y146_L142R]	1.39	0.799	0.902	0.384	0.246	0.273	0.324	0.371	0.28	0.443	0.312	0.302	0.379	0.276	0.474	0.312
CPYNLYAEQLS [HGD_Y40]	0.905	0.737	0.705	1.74	2.68	2.18	0.741	0.988	1.36	1.34	3.15	2.39	1.39	2.67	0.936	6.33
NFFDTCIKTCL [IQGAP2_Y1445_Y1445C_YF]	1.15	1.06	1.01	0.809	0.484	0.491	0.476	0.607	0.45	1.01	0.369	0.407	0.879	0.523	0.721	0.521
AELVRYYMEHH [PTPN11_Y80_Q79R]	0.89	0.875	0.69	0.856	1.03	0.857	0.623	0.673	0.457	1.12	0.514	0.683	0.865	0.639	0.421	0.486
FSQQTYYPVSN [ABCD1_Y180_R182P]	0.938	0.818	0.877	0.805	4.58	3.55	9.03	6.85	0.983	0.647	2.76	5.05	7.07	7.46	0.697	4.37
LEQGEYALRSH [HADHB_Y244_D242G]	0.752	0.788	0.55	0.935	0.521	0.556	0.736	0.505	0.564	0.993	0.747	0.697	0.855	0.567	0.815	0.681
GVIKEYQIRQV [USH2A_Y3623]	0.902	0.689	0.501	0.627	0.376	0.349	0.454	0.476	0.353	0.575	0.356	0.363	0.606	0.359	0.422	0.372
PGPPGYCDSSQ [COL12A1_Y3043]	0.979	0.692	0.603	1.03	0.914	0.492	0.461	0.941	0.77	1.41	0.643	0.639	1.08	0.505	0.707	0.594
ATDLAYFLVRE [ASL_Y375_K380E_YF]	0.827	1.67	1.26	1.54	1.02	0.953	4.9	3.95	0.797	1.51	0.809	0.782	2.29	0.694	0.939	0.783

Second part, led by results:

SH2 binding enrichment (Grb2 SH2)	SH2 binding enrichment (SHP2-C SH2)	SH2 binding enrichment (c-Src SH2)	Sequence	phosphorylation enrichment (AncSZ)	phosphorylation enrichment (EPHB1)	phosphorylation enrichment (EPHB2)	phosphorylation enrichment (FGFR1)	phosphorylation enrichment (FGFR3)	phosphorylation enrichment (Fer (mouse))	phosphorylation enrichment (Fes)	phosphorylation enrichment (Fyn)	phosphorylation enrichment (Hck)	phosphorylation enrichment (Jak2)	phosphorylation enrichment (MERTK)	phosphorylation enrichment (c-Abl (mouse))	phosphorylation enrichment (c-Src)
0.841	0.752	0.557	NTCNRYCCDEI [ITGB3_Y660_R662C]	1.44	0.694	0.594	0.595	0.88	0.612	1.49	0.577	0.574	1.43	0.538	1.03	0.541
0.825	0.652	0.797	CGADSYEMEED [EGFR_Y316]	1.57	0.685	0.72	0.536	0.899	0.533	1.27	0.534	0.705	1.08	0.549	0.827	0.483
0.918	0.461	0.984	QPSALYEDRYL [ASS1_Y83_S79P]	0.93	1.67	1.16	0.529	0.625	6.74	1.06	0.946	3.92	1.04	0.78	0.681	0.942
1.72	1.65	1.38	ALKKPYSVLYK [RPF2_Y59_G60S]	0.603	0.399	0.433	0.385	0.406	0.44	0.674	0.36	0.474	0.467	0.436	0.516	0.454
0.775	0.491	0.429	DNEFAYLKAII [HNF4A_Y288_YF]	1.13	0.45	0.455	0.425	0.648	0.381	1.07	0.386	0.407	0.91	0.334	0.689	0.419
